Experimental findings from PMC12809509 are described below.

Usually Kd stands for a measure of binding affinity in units of concentration. Read a high Kd as a looser complex. Usually koff stands for the rate constant with which the complex falls apart. Read a high koff as fast dissociation. For orientation: kon means the second-order rate constant of association. The low end stands for slower complex formation, the high end for faster complex formation.

In this assay the target is Prebiotinylated FcγRI (Biotinylated Human CD64 Protein, His, Avitag) (human) (UniProt P12314). Description: SPR; Biacore T200; biotinylated FcγRI immobilised on a streptavidin SA chip (F-chip); single-cycle kinetics, OPD injected at 90, 30, 10 nM, 120 s contact, 900 s dissociation; running buffer HBS-EP 1x pH 7.4; double-referenced; 1:1 Langmuir fit; mean ± SD, n = 3.
Chain of UniProt P12314 (P12314 16-292): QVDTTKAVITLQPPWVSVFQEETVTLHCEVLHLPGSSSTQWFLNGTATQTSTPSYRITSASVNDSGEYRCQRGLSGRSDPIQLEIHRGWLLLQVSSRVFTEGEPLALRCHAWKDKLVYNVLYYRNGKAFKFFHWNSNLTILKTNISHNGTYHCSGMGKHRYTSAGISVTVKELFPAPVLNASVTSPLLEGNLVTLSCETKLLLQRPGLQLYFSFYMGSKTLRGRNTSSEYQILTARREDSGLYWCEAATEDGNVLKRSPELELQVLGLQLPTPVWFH

nivolumab (antibody) gave a Kd of 7.33 nM, a koff of 0.00093 s⁻¹ and a kon of 127000 M⁻¹ s⁻¹.
